Measurements: article PMC4371549
Read-outs that look alike come from different tables or passages of the source.

Legend:
Experiment in all cases: resonant mirror detection
calmodulin = calmodulin (UniProt P0DP23)
[1] = target: cytoplasmic domain of band 3 (UniProt P02730)
[2] = target: cytoplasmic domain of CD44 (UniProt P16070)
p55 [3] = target: p55 (UniProt Q00013)
[4] = target: cytoplasmic domain of glycophorin C (UniProt P04921)
[5] = target: cytoplasmic domain of band 3 (UniProt P02730); remark: listed apart in the source
[6] = target: cytoplasmic domain of CD44 (UniProt P16070); remark: listed apart in the source
p55 [7] = target: p55 (UniProt Q00013); remark: listed apart in the source
[8] = target: cytoplasmic domain of glycophorin C (UniProt P04921); remark: listed apart in the source

Sequence of p55 (Q00013 whole entry, the tested form may be a part): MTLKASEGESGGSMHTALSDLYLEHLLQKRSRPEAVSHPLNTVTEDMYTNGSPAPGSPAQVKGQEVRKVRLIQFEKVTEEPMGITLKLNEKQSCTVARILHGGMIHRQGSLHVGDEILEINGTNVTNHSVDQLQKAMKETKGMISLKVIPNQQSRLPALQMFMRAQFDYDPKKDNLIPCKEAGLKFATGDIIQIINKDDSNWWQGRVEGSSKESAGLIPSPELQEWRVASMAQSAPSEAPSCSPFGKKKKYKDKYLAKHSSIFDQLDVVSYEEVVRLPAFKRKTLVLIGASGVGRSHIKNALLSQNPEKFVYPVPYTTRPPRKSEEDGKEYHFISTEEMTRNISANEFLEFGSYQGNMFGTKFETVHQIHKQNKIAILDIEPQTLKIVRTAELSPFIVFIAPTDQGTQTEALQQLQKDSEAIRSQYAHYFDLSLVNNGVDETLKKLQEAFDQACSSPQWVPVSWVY
Sequence of cytoplasmic domain of CD44 (P16070 671-742): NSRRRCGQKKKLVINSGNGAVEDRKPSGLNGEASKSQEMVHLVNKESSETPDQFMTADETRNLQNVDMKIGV
Sequence of cytoplasmic domain of band 3 (P02730 1-403): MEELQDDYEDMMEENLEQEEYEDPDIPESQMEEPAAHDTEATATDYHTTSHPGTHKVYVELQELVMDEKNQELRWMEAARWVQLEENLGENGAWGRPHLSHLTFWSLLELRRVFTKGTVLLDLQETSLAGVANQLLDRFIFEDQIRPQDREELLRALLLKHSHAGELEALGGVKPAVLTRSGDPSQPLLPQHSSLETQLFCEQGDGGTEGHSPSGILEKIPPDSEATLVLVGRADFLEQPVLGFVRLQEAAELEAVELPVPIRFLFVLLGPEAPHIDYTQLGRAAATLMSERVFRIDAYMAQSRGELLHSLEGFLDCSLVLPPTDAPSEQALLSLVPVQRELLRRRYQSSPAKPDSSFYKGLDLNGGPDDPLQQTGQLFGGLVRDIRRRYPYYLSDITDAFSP
Sequence of cytoplasmic domain of glycophorin C (P04921 82-128): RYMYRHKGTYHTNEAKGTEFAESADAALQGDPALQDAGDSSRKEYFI

Row | Kd (calmodulin) [nM] | kon (calmodulin) [M⁻¹ s⁻¹] | Kd [1] [nM] | Kd [2] [nM] | koff [2] [s⁻¹] | kon [2] [M⁻¹ s⁻¹] | Kd (p55 [3]) [nM] | koff (p55 [3]) [s⁻¹] | Kd [4] [nM] | Kd [5] [nM] | koff [5] [s⁻¹] | Kd [6] [nM] | koff [6] [s⁻¹] | kon [6] [M⁻¹ s⁻¹] | Kd (p55 [7]) [nM] | Kd [8] [nM] | Substance
1 | 2970 | 180000 |  |  |  |  |  |  |  |  |  |  |  |  |  |  | GHP-G30 (headpiece region and 30kDa domain of 4.1G) (from UniProt O43491 1-1005) (domain or fragment)
2 | 190 |  |  |  |  |  |  |  |  |  |  |  |  |  |  |  | G30 (30kDa membrane binding domain of protein 4.1G) (from UniProt O43491 1-1005) (domain or fragment)
3 |  |  | 2190 | 737 | 0.019 | 25000 | 1760 | 0.012 | 1480 | 183 | 0.012 | 314 | 0.016 | 51000 | 113 | 237 | complex of RHP-G30 and CaM (from UniProt P11171 1-209; P0DP23 1-149)
